The subject of one data set is SBS#75115 (synthetic). Description: cell_activity. The settings on record: KRAB fusion mRNA, C9 line, isoform-specific RT-qPCR; microarray: only C9orf72 repressed.
In another data set the test system is SBS#75114 (synthetic). Briefly: cell_activity. The settings on record: KRAB fusion mRNA, C9 line, isoform-specific RT-qPCR. Background: In qPCR the cycle at which signal appears reflects the starting amount.

Consider “CACGCCCCGGCCCCGGCCCCGGCCCCTA (double strand) [C9orf72 reverse site, frame i]”, for which the activity in the data set on SBS#75115 (synthetic) and with SBS#75114 (synthetic) was more than 70 % repression in each case.

Values taken from patent publication US20190167815.
